Experimental data published in patent publication US20250161505A1, “CD206 Targeted Peptide Conjugates and Methods of Using the Same” (Riptide Bioscience, Inc., priority 2022, published 2025).
Where a SMILES comes first, the peptide text is derived from it. The star is where a group is joined. DOTA = O=C(O)CN1CCN(CC(=O)O)CCN(CC(=O)*)CCN(CC(=O)O)CC1

How the values were obtained:
[1] = format: in vitro ADME; settings: mouse, serum
Description: Labeling of RP-832 and MART-1 with ^68Ga was accomplished by adding 10 μg of peptide to 500 μCi of ^68GaCl3 in 50 μL of 1 M sodium acetate buffer (pH 4.5). The reactions were incubated in a thermomixer at 95 degrees Celsius for 14 minutes with 300 rpm agitation. Incorporation of the ^68Ga was determined by radio-High Performance Liquid Chromatography (HPLC) immediately after the reaction. Analysis was performed using a C-18 column. The gradient elution system utilized mobile phase A (100% water 0.1% TFA) and mobile phase C (Acetonitrile containing 0.1% TFA) with a flow rate of 1.0 mL/min. The gradient started with 100% A and was increased to 100% C over 6.67 minutes and then returned to the initial gradient conditions within 4.66 minutes. […] The mixtures were incubated at 37 degrees Celsius with 400 rpm agitation up to three hours. Aliquots were removed at different time points (30 minutes, 1, 2, 3 h) to evaluate stability and analyzed using radio-HPLC as described above. All experiments were completed in triplicate.

[2] = in vivo; design: species or system BALB/c mice; settings: BALB/c, mouse, total radioactivity
Description: (§1) 4T1 cells, a mouse breast cancer cell line (ATCC), and CT26 cells, a mouse colon carcinoma cell line (ATCC), were cultured in RPMI-1640 medium (ATCC) with 10 percent fetal bovine serum and 0.1 percent gentamicin at 37 degrees Celsius with 5 percent CO2. Wild-type BALB/c mice (Charles River) were used for syngeneic 4T1 and CT26 tumor models and were subcutaneously injected in the shoulder with 200,000 4T1 cells and 2×10^6 CT26 cells (with Matrigel). Tumors were allowed to grow for 10 days. Dynamic imaging studies were performed with a GNEXT small animal PET/CT (SOFIE). […] After 45 minutes, a high-resolution CT scan was obtained for anatomical reference. […] After 1 hour, a high-resolution CT scan was obtained for anatomical reference. During imaging, mice were anesthetized with 2.5 percent isoflurane/oxygen. The PET data was reconstructed into 5-minute time frames. Regions of interest (ROI) were drawn based on the CT anatomical guidelines. The mean standardized uptake value (SUV) was quantified using VivoQuant software with the equation: Where C is the activity concentration in tissue, dose is the injected dose, and weight is the body weight of the mouse. Statistical analysis was conducted with Graphpad Prism software.

[3] = test system: syngeneic 4T1 tumors; assay: in vivo; design: species or system BALB/c mice; settings: mouse
Description: as §1

[4] = test system: syngeneic CT26 tumors; assay: in vivo; design: species or system BALB/c mice; settings: mouse
Description: as §1

[5] = in vivo; design: species or system BALB/c mice; settings: BALB/c, mouse, total radioactivity, average percent injected dose per gram of organ
Description: 4T1 cells, a mouse breast cancer cell line (ATCC), and CT26 cells, a mouse colon carcinoma cell line (ATCC), were cultured in RPMI-1640 medium (ATCC) with 10 percent fetal bovine serum and 0.1 percent gentamicin at 37 degrees Celsius with 5 percent CO2. Wild-type BALB/c mice (Charles River) were used for syngeneic 4T1 and CT26 tumor models and were subcutaneously injected in the shoulder with 200,000 4T1 cells and 2×10^6 CT26 cells (with Matrigel). Tumors were allowed to grow for 10 days. Following the [^68Ga]832c imaging studies, animals were euthanized, and organs of interest removed and assessed for radioactivity. For all biodistribution studies, specific uptake for each tissue was measured with background and decay correction and expressed as percent injected dose per gram of tissue (% ID/g) as calculated by normalization to the total activity injected.

[6] = molecular target: T1, Recombinant human CD206 (Homo sapiens, UniProt P22897); assay: Surface plasmon resonance (Biacore T200), immobilized CD206; format: binding; settings: all concentrations (0.5 uM-10 uM)
T1 construct: purchased R&D systems 2534-MR-050
T1 sequence (P22897 19-1456): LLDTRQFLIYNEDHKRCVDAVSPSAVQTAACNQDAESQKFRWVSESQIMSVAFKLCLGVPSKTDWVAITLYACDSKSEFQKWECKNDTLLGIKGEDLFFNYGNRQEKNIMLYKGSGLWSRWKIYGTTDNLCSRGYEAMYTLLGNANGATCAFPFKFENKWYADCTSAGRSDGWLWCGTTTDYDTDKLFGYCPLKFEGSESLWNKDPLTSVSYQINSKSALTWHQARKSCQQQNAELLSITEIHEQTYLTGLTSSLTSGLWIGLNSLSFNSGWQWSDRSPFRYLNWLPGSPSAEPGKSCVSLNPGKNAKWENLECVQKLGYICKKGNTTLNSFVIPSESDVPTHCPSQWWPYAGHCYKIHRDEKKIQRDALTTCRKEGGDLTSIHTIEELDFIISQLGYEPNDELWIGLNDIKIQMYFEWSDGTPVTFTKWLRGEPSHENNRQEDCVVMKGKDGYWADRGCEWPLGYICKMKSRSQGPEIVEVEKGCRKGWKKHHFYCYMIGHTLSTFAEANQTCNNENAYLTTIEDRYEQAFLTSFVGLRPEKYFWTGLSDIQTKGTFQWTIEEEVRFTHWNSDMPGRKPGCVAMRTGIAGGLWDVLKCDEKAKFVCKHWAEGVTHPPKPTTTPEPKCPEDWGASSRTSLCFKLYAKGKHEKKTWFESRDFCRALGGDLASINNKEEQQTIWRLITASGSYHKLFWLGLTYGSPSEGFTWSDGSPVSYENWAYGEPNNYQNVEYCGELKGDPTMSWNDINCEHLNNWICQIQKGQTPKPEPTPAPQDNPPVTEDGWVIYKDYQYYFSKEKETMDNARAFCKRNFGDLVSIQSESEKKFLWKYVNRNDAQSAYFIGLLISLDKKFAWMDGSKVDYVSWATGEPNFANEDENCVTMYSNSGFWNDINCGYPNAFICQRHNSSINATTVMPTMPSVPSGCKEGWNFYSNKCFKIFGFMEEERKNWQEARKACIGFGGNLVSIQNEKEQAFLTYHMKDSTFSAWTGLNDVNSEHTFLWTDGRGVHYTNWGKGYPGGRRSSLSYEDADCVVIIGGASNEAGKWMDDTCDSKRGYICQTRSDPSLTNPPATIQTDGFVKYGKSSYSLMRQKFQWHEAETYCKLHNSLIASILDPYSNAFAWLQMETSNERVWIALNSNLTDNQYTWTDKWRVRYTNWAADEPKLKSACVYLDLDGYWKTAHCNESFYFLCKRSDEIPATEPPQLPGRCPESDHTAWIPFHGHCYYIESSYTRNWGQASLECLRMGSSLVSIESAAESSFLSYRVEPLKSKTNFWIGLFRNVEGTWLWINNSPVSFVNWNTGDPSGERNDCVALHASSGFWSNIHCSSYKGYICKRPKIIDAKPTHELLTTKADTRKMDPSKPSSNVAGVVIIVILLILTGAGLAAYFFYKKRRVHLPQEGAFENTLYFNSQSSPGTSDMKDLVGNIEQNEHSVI
Description: All SPR experiments were carried out using a Biacore T200 Biosensor instrument (GE Health Life Sciences, Piscataway, NJ). CM5 sensor chips, amine coupling reagents, and running buffers used in the binding analysis were obtained from Cytivalifesciences (Marlborough, MA).
Recombinant human CD206 was purchased from R&D systems (Catalog #2534-MR-050). CD206 protein was immobilized onto a CM5 sensor chip surface via standard amine coupling chemistry, using HBS-P+ running buffer (10 mM HEPES, [pH 7.4], 150 mM NaCl, and 0.05% Surfactant 20) at 25° C., as per manufacturer recommendation (Cytiva, Marlborough, MA). Briefly, carboxyl groups on the sensor chip flow cell surface (flow cell 2) were activated by injecting an equal mixture of 200 mM N-hydroxysuccinimide (NHS) and 50 mM 1-ethyl-3-(3-dimethylaminopropyl) carbodiimide hydrochloride) (EDC) at a flow rate of 10 μl/min. CD206 (25 μg/mL) was then diluted in 10 mM sodium acetate buffer pH 5.0 and injected over the surface at a flow rate of 10 μl/min until a level of 5000 resonance units (RU) was reached. This was followed by a 7 min injection of 1 M ethanolamine (pH 8) to block excessive reactive esters and wash away any non-covalently bound CD206. A blank flow cell surface (flow cell 1) was similarly activated with no protein injection, and used as a reference to subtract non-specific binding and bulk refractive index. […]

[7] = test system: tumor associated macrophages (TAMs); settings: cited from earlier work
[8] = test system: PDL1 unresponsive melanoma; settings: PDL1 unresponsive melanoma murine models; cited from earlier work
[9] = test system: CD206 macrophages; settings: through interactions with CD206 macrophages; cited from earlier work

## N=C(N)NCCC[C@H](NC(=O)[C@H](Cc1c[nH]c2ccccc12)NC(=O)[C@H](CCCCN)NC(=O)[C@H](Cc1ccccc1)NC(=O)CNC(=O)CNC(=O)[C@H](Cc1ccccc1)NC(=O)[C@H](CCCCN)NC(=O)[C@H](Cc1c[nH]c2ccccc12)NC(=O)[C@H](CCCNC(=N)N)NC(=O)CN1CCN(CC(=O)O)CCN(CC(=O)O)CCN(CC(=O)O)CC1)C(=O)O [[^68Ga]RP832c, metal not drawn] ({DOTA}-RWKFGGFKWR-OH)
[1]
  free ^68Ga (^68Ga remained complexed): less than one percent free ^68Ga
[2]
  SUV at 0.25 h: 0.25 SUV
  SUV at 40 min: 0.5 SUV
[3]
  highest signal in MIP images: bladder
[4]
  highest signal in maximum intensity projections (MIPs): kidneys and bladder
[5]; 15 uCi, liver
  tissue uptake at 1.5 h: 1.66 %ID/g
[5]; 15 uCi, spleen
  tissue uptake at 1.5 h: 0.67 %ID/g
[5]; 15 uCi, tumor
  tissue uptake at 1.5 h: 0.4 %ID/g
[5]; liver
  tissue uptake at 1.5 h: 1.46 %ID/g
[5]; spleen
  tissue uptake at 1.5 h: 0.91 %ID/g
[5]; tumor
  tissue uptake at 1.5 h: 0.57 %ID/g

## DOTA-MART-1: MART-1 peptide with DOTA, not radiolabeled, control in SPR
[6]
  binding sensorgram: no binding

## RWKFGGFKWR [RP-832c]
[7]
  effect on population of tumor associated macrophages: shift the population of tumor associated macrophages (TAMs) from M2 (pro-tumor) towards a M1 phenotype (anti-tumor)
[8]
  effect on tumor resistance: shown promise in inhibiting tumor resistance
[9]
  effect on bleomycin induced pulmonary fibrosis: inhibit bleomycin induced pulmonary fibrosis
